Results taken from paper PMC7662849 (2020).
Groups on a side chain read outwards from the residue.

Target: T1, H3(E5)2 branched peptide (not fully specified)
T1 chain: Ac-EEEEEGGK([Gly-Gly-Kme3‑VGGTAPAS])GGEEEEE-NH2
Assay: NMR titration

Kd: 360 µM
B1: PSIP1 (LEDGF) PWWP domain PWWP (protein)
chain: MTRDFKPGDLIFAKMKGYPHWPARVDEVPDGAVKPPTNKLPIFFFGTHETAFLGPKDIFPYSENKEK
